Experiments:
[1] = target: Coiled coil domain of UVRAG (228-276) (Mus musculus) (UniProt Q8K245); assay: ITC
[2] = target: Coiled coil domain of Atg4L (Atg14L coiled coil) (Mus musculus (Mouse)) (UniProt Q8CDJ3); assay: ITC
Chain of Coiled coil domain of Atg4L (Atg14L coiled coil) (Mus musculus (Mouse)) (Q8CDJ3 other isoform, or with tags, fused parts or gaps limits assumed): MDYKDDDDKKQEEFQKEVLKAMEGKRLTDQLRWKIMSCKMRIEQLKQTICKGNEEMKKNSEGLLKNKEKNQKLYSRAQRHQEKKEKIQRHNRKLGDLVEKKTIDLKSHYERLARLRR

Chain of Coiled coil domain of UVRAG (228-276) (Mus musculus) (Q8K245 other isoform, or with tags, fused parts or gaps limits assumed): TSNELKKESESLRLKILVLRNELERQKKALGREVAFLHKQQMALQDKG

Q: What does the source list for “Beclin1 mutant L241E/L245E (from UniProt Q91XJ1 174-266)”?
A: Kd [1]: 10 nM; fold stronger than wild-type Beclin1 [1]: 20 times; Kd [2]: 500 nM

— patent US20180002381A1
